Each block holds one binder with its values, some of them ahead of it.
B1: human BMP-11 (GDF-11; R&D Systems) (ligand, UniProt O95390 299-407, looked up)
chain: NLGLDCDEHSSESRCCRYPLTVDFEAFGWDWIIAPKRYKANYCSGQCEYMFMQKYPHTHLVQQANPRGSAGPCCTPTKMSPINMLYFNDKQQIIYGKIPGMVVDRCGCS
B3: ActRIIb-Fc (R&D Systems) (Fc fusion, human, UniProt Q13705 19-134, looked up, not shown: a dimerising Fc or GST)
chain: SGRGEAETRECIYYNANWELERTNQSGLERCEGEQDKRLHCYASWRNSSGTIELVKKGCWLDDFNCYDRQECVATEENPQVYFCCCEGNFCNERFTHLPEAGGPEVTYEPPPTAPT
modifications: Alexa Fluor 647 label in the HTRF assay
notes: also called rhActRIIb-Fc; Human Activin RIIB Fc Chimera

Assays:
[1] = biological target: B3; assay: SPR format A set-up
Source text: (§1) Anti-human Fc antibody (Biacore/GE) was immobilized on a Biacore CM5 chip via NHS/EDC coupling according to the manufacturer's instructions. […] A concentration range of anti-myostatin Adnectin was applied across all flow cells in HBSP running buffer. Regeneration of the chip surface between cycles was accomplished with two 30 second pulses of 3M MgCl₂. Kinetic traces of reference-subtracted sensorgrams were fit to a 1:1 binding model using Biaevaluation software.

[2] = biological target: T1, human Activin A (R&D Systems) (human, UniProt P08476 311-426); assay: cell-based or functional assay
T1 sequence (looked up): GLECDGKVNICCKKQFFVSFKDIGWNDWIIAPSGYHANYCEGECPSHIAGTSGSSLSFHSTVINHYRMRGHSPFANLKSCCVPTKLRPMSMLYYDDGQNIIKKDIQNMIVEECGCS

[3] = biological target: B1; assay: cell-based or functional assay
[4] = biological target: T2, human myostatin (mature, recombinant; R&D Systems) (human, UniProt O14793 267-375); assay: cell-based or functional assay
T2 sequence: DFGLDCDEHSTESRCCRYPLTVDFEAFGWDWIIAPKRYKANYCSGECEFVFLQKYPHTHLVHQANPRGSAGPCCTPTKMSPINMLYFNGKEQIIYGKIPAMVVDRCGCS

[5] = biological target: T2, human myostatin (mature, recombinant; …); assay: competitive HTRF (1889E01/myostatin/ActRIIb-Fc sandwich)
Source text: An HTRF assay was used to measure the binding affinities of anti-myostatin Adnectins to myostatin. […] The Eu-W 1024 labeled Streptavidin is used to bind biotinylated 1889E01. […] In the presence of a competitive Adnectin, the HTRF signal decreases.

[6] = biological target: T2, human myostatin (mature, recombinant; …); assay: KinExA, solution phase, global analysis
Experimental: The affinities of PRD-1177 and ATI-1338 were also measured using the same assay format. Triplicate titrations of PRD-1177 were performed with myostatin at a monomer concentration of 1 nM (n=2) and 0.8 nM (n=1). Triplicate titrations of ATI-1338 were performed with myostatin at a monomer concentration of 5 nM (n=1), 1.6 nM (n=1), and 1.4 nM (n=1).

[7] = biological target: T1, human Activin A (R&D Systems); assay: SPR format B, 37C
Experimental: (§2) A concentration range of anti-myostatin Adnectins was applied in HBSP running buffer. Regeneration of the chip surface between cycles was accomplished with 60 seconds of 10-50 mM NaOH. Kinetic traces of reference-subtracted sensorgrams were fit to a 1:1 binding model using Biaevaluation software. For Fc-formatted Adnectins, interaction kinetics are driven by avidity of bivalent Fc and dimeric myostatin even at low immobilization density. The data shown in Table 12 indicate that some of the Adnectins run in this SPR format bind myostatin and BMP-11 and also activin with similar affinities.

[8] = biological target: B1; assay: SPR format B, 37C
Experimental: as §2

[9] = biological target: T2, human myostatin (mature, recombinant; …); assay: SPR format B, 37C
Experimental: as §2

[10] = biological target: T2, human myostatin (mature, recombinant; …); assay: competitive ELISA: 10 nM myostatin preincubated with soluble ActRIIb-Fc, then binding to plate-coated ActRIIb-Fc detected with biotinylated anti-myostatin polyclonal; % competition
Experimental: Competitive ELISA: Competitive binding assays to evaluate the ability of anti-myostatin Adnectins to compete with the ActRIIB receptor binding to myostatin were carried out using competitive ELISA. Nunc Maxisorp plates were coated with 2 μg/mL ActRIIb-Fc (R&D Systems) in 0.2M sodium carbonate pH 9.6 buffer overnight at 4° C. After washing with PBS-T (PBS containing 0.05% Tween-20), wells were blocked with OptEIA buffer (BD Biosciences) for 1 h at 25° C. with shaking. Myostatin (10 nM; R&D Systems) was preincubated with a concentration range of Adnectin or ActRIIb-Fc competitor (0.2 pM to 1 μM) in OptEIA buffer for 1 h at 25° C. with shaking. The blocked and coated assay plate was washed with PBS-T, and then myostatin/competitor mixtures were added and incubated for 30 min at 25° C. with shaking. The assay plate was washed with PBS-T, after which bound myostatin was detected with 1:1000 biotinylated goat anti-myostatin polyclonal (R&D Systems) diluted in OptEIA, for 1 h at 25° C. with shaking. After washing with PBS-T, 1:5000 Streptavidin-HRP (Thermo/Pierce) diluted in OptEIA was added, followed by incubation for 30 min at 25° C. with shaking. The assay plate was developed with TMB (BD Biosciences), quenched with 2N sulfuric acid, and absorbance read at A450.

[11] = biological target: T1, human Activin A (R&D Systems); assay: SPR format A set-up
Source text: as §1

[12] = biological target: T2, human myostatin (mature, recombinant; …); assay: cell-based or functional assay; remark: listed apart in the source
[13] = biological target: T2, human myostatin (mature, recombinant; …); assay: HTRF competition binding assay, alanine mutant
[14] = biological target: T2, human myostatin (mature, recombinant; …); assay: competitive HTRF, alanine scan

Binder: B1
binding result [1]: binds

Binder: B3
IC50 (read off the curve) [10]: ~1 nM
binding result [11]: binds

Continued, values first:

ARE-luciferase IC50 [2]: > 1000 nM
ARE-luciferase IC50 [3]: 5.8 nM
ARE-luciferase IC50 [4]: 0.28 nM
IC50 [5]: 0.24 nM
Kd [6]: 0.85 nM
Kd [7]: 4.6 nM
Kd [8]: 3.8 nM
Kd [9]: 1.9 nM
B2: ATI-1338 [40K 2-branch PEG] (designed binder)
chain: MGVSDVPRDLEVVAATPTSLLISWTLPHAGRAHYYRITYGETGGNSPVQEFTVPGRGVTATISGLKPGVDYTITVYAVTVTTTKVIHYKPISINYRTEGSGCHHHHHH
modifications: 40K 2-branch PEG on the Cys of the EGSGC tail
notes: cysteine mutant of 2987_H07

Myostatin ARE-luc IC50 [12]: > 100 nM
IC50 [13]: > 100 nM
IC50 [14]: 55 nM
B4: 3116_A06 R56A (designed binder)
chain: MGVSDVPRDLEVVAATPTSLLISWSLPHQGKANYYRITYGETGGNSPVQEFTVPGAGVTATISGLKPGVDYTITVYAVTVTDTGYLKYKPISINYRTEIDKPSQHHHHHH

Reference: patent US20170088602A1 (Bristol-Myers Squibb, published 2017)
